The term Kd denotes a measure of binding affinity in units of concentration.

In assay [1] the target is blood coagulation factor X (UniProt P00742). Briefly: FX binding to immobilised virus (2900 RU); method not given, SPR (Biacore) named for FIG. 14B.
The target in assay [2] is T1, sCAR (UniProt P78310 20-237).
T1 construct: also called soluble coxsackievirus and Ad receptor (CAR)
T1 sequence: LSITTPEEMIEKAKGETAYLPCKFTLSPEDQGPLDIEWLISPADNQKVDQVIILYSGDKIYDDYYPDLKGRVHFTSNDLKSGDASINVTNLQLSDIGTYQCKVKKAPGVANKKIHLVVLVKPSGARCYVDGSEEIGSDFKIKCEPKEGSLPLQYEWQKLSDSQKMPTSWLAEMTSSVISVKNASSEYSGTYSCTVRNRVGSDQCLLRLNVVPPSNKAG
Briefly: not stated; row marked with an asterisk that has no footnote.

blood coagulation factor X, sequence (P00742 41-488 limits assumed): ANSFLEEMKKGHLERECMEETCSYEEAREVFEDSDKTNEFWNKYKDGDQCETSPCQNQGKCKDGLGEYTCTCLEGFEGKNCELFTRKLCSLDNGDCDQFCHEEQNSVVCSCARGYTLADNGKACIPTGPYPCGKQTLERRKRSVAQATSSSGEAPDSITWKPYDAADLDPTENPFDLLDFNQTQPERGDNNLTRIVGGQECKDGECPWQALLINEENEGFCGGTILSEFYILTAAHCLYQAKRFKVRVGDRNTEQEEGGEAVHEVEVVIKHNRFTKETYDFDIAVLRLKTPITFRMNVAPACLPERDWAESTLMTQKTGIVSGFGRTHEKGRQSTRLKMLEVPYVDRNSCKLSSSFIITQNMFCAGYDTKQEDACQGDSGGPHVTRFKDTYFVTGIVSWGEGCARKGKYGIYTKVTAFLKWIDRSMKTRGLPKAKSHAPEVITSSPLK

“human adenovirus serotype 4 (Ad4), virus particle (from UniProt P49810)” displayed a Kd in assay [1] of 2480 nM.

B1: Ad5 partner of the row Ad5-sCAR* (other)
chain: GAITVGNKNNDKLTLWTTPAPSPNCRLNAEKDAKLTLVLTKCGSQILATVSVLAVKGSLAPISGTVQSAHLIIRFDENGVLLNNSFLDPEYWNFRNGDLTEGTAYTNAVGFMPNLSAYPKSHGKTAKSNIVSQVYLNGDKTKPVTLTITLNGTQETGDTTPSAYSMSFSWDWSGHNYINEIFATSSYTFSYIAQE
B1 yielded a dissociation constant (Kd) in assay [2] of 7.9 nM.

B2: Ad12 partner of the row Ad12-sCAR* (other)
chain: SNTPYDPLTLWTTPDPPPNCSLIQELDAKLTLCLTKNGSIVNGIVSLVGVKGNLLNIQSTTTTVGVHLVFDEQGRLITSTPTALVPQASWGYRQGQSVSTNTVTNGLGFMPNVSAYPRPNASEAKSQMVSLTYLQGDTSKPITMKVAFNGITSLNGYSLTFMWSGLSNYINQPFSTPSCSFSYITQE
With B2, in assay [2], the Kd came to 15 nM.
